We go through 1 substance from patent publication EP2078531A2.

Several values for one entry are separate records, joined by “and”; a condition that tells them apart may be missing. Equal values may be shown once.

This test concerns the target T1, Human recombinant platelet factor-4 (human) (UniProt P02776).
T1 sequence (looked up): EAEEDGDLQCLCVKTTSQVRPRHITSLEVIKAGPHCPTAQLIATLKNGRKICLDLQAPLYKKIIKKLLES
The test is described as follows: PF4-sepharose affinity column, HUVEC conditioned medium.

With “LOR-1 (from UniProt Q9Y4K0 26-774) (enzyme)”, the NaCl concentration at elution from the PF4 column was 0.4 M NaCl and 0.5 M NaCl.
